One molecule from patent US20100291682, “SYSTEM FOR TRANSPOSING HYPERACTIVE RECOMBINANT DERIVATIVES OF MOS-1 TRANSPOSON” (published 2010) can be followed below.

Numbering of substitutions follows the chain as printed.

Common to all, as to assay: cell_activity; 3T46 transposition in E. coli T5 vs 3T3/WT
Common to all, as to conditions: chain copies: 2

The target in data set [1] is T1, Mos-1 transposase FT (Drosophila mauritiana, UniProt Q7JQ07 SEQ:1-345, F53Y,T216A).
T1 sequence: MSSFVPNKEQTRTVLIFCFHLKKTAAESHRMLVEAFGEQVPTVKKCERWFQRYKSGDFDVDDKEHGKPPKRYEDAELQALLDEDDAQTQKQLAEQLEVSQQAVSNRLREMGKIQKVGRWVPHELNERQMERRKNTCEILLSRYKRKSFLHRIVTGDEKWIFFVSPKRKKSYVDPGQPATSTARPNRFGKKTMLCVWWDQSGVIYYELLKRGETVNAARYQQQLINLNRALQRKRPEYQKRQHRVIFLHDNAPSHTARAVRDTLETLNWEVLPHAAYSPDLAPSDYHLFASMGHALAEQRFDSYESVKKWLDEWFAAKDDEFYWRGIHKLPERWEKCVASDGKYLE
The protocol: (§1) Escherichia coli JM109 bacteria were co-transformed with the pBC 3T3 plasmid (comprising a transposition reporter 2 ITR 3′ mariner-like element and the chloramphenicol resistance gene) and with the inducible vector encoding for the transposase (pKK-Tnp or pMal-Tnp) comprising the ampicillin resistance gene. The bacteria selection was performed on ampicillin (100 μg/ml) and chloramphenicol in order to verify the presence of the two plasmids.
(§2) The JM109 bacteria containing both the pBC 3T3 plasmid and the pKK-Tnp (or pMalC2X-Tnp) plasmid were placed in culture for 1 hr at 37° C. in 250 μl of LB. This inoculum was then poured into 5 ml of LB supplemented with 1 mM IPTG. The culture was titrated on LB plates (100 μl of a 1/1000 dilution) and on LB-Tet plates (12.5 μg/ml) (250 μl of the non-diluted culture). The culture induced by IPTG was then cultured for 5 hours at 32° C. (optimal temperature of transposase) under stirring (250 rpm). The bacterial suspension was then titrated on LB plates (100 μl of a 1/250,000 dilution) and on LB-tet plates (100 μl of the undiluted bacterial suspension). The plates were placed at 37° C. overnight. The following day, the colonies were counted on LB and LB-Tet plates, and the transposition frequency (equal to the number of tetracycline bacteria over the number of bacterial per 1 ml of undiluted bacterial suspension) was calculated.
(§3) In order to evaluate the transposition efficiency of systems associating a hyperactive transposase and a pseudo-transposon that is also hyperactive, various combinations were tested in the transposition test in bacteria described in part I, paragraph I-B above.

Data set [2] addresses T2, Mos-1 transposase FQ (Drosophila mauritiana, UniProt Q7JQ07 SEQ:1-345, F53Y,Q91R).
T2 sequence: T1 sequence with Q91R, A216T
How it is done: as §1, §2, §3

Data set [3] addresses T3, Mos-1 transposase FETY (Drosophila mauritiana, UniProt Q7JQ07 SEQ:1-345, F53Y,E137K,T216A,Y237C).
T3 sequence: T1 sequence with E137K, Y237C
How it is done: as §1, §2, §3

B1: ITR46 (dsDNA)
DNA 1: TCAGGTGTACAAGTATGAGATGTCGTTT
DNA 2: AAACGACATCTCATACTTGTACACCTGA
Consider B1, for which the values for the activity in data set [1], in data set [2] and in data set [3] were 3.7 fold, 3.3 fold and 2 fold, respectively.
